Laboratory results: the RNAGym collection of RNA variant scans (doi:10.7554/elife.80360)

B1: HDV Ribozyme (parent)
chain: GGCCGGCAUGGUCCCAGCCUCCUCGCUGGCGCCGGCUGGGCAACAUUCCGAGGGGACCGUCCCCUCGGUAAUGGCGAAUGGGACCCA

Variants of: B1
Assay: self-cleavage, relative activity (ratio to wild type); higher = more cleavage; co-transcriptional
C4U G54A gave a self-cleavage of 0.791.
With C4G C22G the self-cleavage was 0.
C3U C41U gave a self-cleavage of 0.726.
Variant C4G C30G has a self-cleavage of 0.
In the case of G5A G59A, the self-cleavage is reported as 0.407.
G5A C86G gave a self-cleavage of 0.13.
For G5C A51G, the self-cleavage was 0.262.
C3U C48U gave a self-cleavage of 0.804.
For C4G G67C, the self-cleavage was 0.374.
Variant G5A U46G has a self-cleavage of 0.161.
G5C C18U showed a self-cleavage of 0.142.
With G5A A87G the self-cleavage was 0.252.
In the case of C4A G11U, the self-cleavage is reported as 0.
For G5A G50U, the self-cleavage was 0.143.
Variant C4A A42G has a self-cleavage of 0.0875.
Work on G5A G40A yielded a self-cleavage of 0.0992.
For G5C A8U, the self-cleavage was 0.0665.
With G5C A8G the self-cleavage was 0.
With G5C A77U the self-cleavage was 0.
Work on C4G A78U yielded a self-cleavage of 0.116.
With C4G A78C the self-cleavage was 0.0923.
C4G G59A showed a self-cleavage of 0.198.
Variant C3U G31C has a self-cleavage of 0.168.
Variant C4U U79G has a self-cleavage of 0.185.
With C3U C61A the self-cleavage was 0.801.
C3U G67U showed a self-cleavage of 0.752.
With C3U G67A the self-cleavage was 0.822.
With C4G C85G the self-cleavage was 0.332.
With C4G G53U the self-cleavage was 0.424.
With C4G G35U the self-cleavage was 0.0875.
Variant C4A G74C has a self-cleavage of 0.0997.
Work on G5C C41A yielded a self-cleavage of 0.0665.
For C4U U72G, the self-cleavage was 0.361.
C4A A16G showed a self-cleavage of 0.344.
C4A A16C gave a self-cleavage of 0.0339.
Work on G5A G55A yielded a self-cleavage of 0.237.
Work on C3U U65G yielded a self-cleavage of 0.682.
In the case of G5A C22G, the self-cleavage is reported as 0.0554.
In the case of G5A C22U, the self-cleavage is reported as 0.0831.
Work on C4U C24U yielded a self-cleavage of 0.237.
G5A C63U showed a self-cleavage of 0.155.
Work on C4U G5C yielded a self-cleavage of 0.166.
Work on C4A G67U yielded a self-cleavage of 0.354.
In the case of C4A G52A, the self-cleavage is reported as 0.401.
C4A U69C gave a self-cleavage of 0.277.
C4A A70G showed a self-cleavage of 0.189.
Variant C4A A70U has a self-cleavage of 0.252.
In the case of G5A C7G, the self-cleavage is reported as 0.0875.
With C4U U69C the self-cleavage was 0.755.
Variant C4U U69G has a self-cleavage of 0.831.
Work on C4G C18G yielded a self-cleavage of 0.0282.
C4G C18A gave a self-cleavage of 0.0287.
Work on C3U G11A yielded a self-cleavage of 0.262.
For C3U G11C, the self-cleavage was 0.191.
C3U U9A gave a self-cleavage of 0.904.
C4U C22A gave a self-cleavage of 0.188.
With C4A C15A the self-cleavage was 0.198.
Work on C4A C13G yielded a self-cleavage of 0.0692.
C4U G35C showed a self-cleavage of 0.119.
With C4U G35A the self-cleavage was 0.173.
C3U G82U showed a self-cleavage of 0.332.
For C3U C32U, the self-cleavage was 0.338.
With C3U U27A the self-cleavage was 0.701.
C3U C84U gave a self-cleavage of 0.808.
C4A G29U showed a self-cleavage of 0.
In the case of C4A G35U, the self-cleavage is reported as 0.0369.
Work on C4A G35C yielded a self-cleavage of 0.086.
Work on C4G U47G yielded a self-cleavage of 0.175.
For C4U C84U, the self-cleavage was 0.514.
For C4U C84A, the self-cleavage was 0.712.
Variant C4G C24U has a self-cleavage of 0.193.
Work on C3U C64G yielded a self-cleavage of 0.915.
For C4A C64A, the self-cleavage was 0.157.
C4A C64G showed a self-cleavage of 0.386.
C4G C26U showed a self-cleavage of 0.684.
C4G G68C gave a self-cleavage of 0.475.
For C4G G68U, the self-cleavage was 0.227.
With C3U C85U the self-cleavage was 0.626.
In the case of C3U C85A, the self-cleavage is reported as 0.646.
With C4G U23C the self-cleavage was 0.208.
Variant C4U A45G has a self-cleavage of 0.862.
Work on C4U A45U yielded a self-cleavage of 0.458.
With C4U A45C the self-cleavage was 0.475.
C4U C85A showed a self-cleavage of 0.341.
In the case of C4G A51G, the self-cleavage is reported as 0.554.
Work on C4U C66A yielded a self-cleavage of 0.755.
In the case of C4U C66U, the self-cleavage is reported as 0.704.
In the case of G5A C36G, the self-cleavage is reported as 0.
With C4G A8U the self-cleavage was 0.214.
Variant C4A G82A has a self-cleavage of 0.0272.
Work on C4A G82U yielded a self-cleavage of 0.089.
C3U G28C gave a self-cleavage of 0.0449.
C4U G80A showed a self-cleavage of 0.242.
With C4A C33U the self-cleavage was 0.104.
Work on C4G C44A yielded a self-cleavage of 0.0346.
In the case of C4U C32U, the self-cleavage is reported as 0.525.
C3U U69G gave a self-cleavage of 0.649.
For G5A C21A, the self-cleavage was 0.0923.
In the case of C4G, the self-cleavage is reported as 0.376.
C4A gave a self-cleavage of 0.315.
Work on C4U yielded a self-cleavage of 0.758.
With C3U G25A the self-cleavage was 0.138.
Work on C3U G25U yielded a self-cleavage of 0.0175.
C3U U37A gave a self-cleavage of 0.128.
Work on C4U C41G yielded a self-cleavage of 0.374.
With G5A C62G the self-cleavage was 0.0594.
For C4G G28C, the self-cleavage was 0.101.
Work on C4A G68U yielded a self-cleavage of 0.453.
C4A C66U gave a self-cleavage of 0.361.
C4G A70C showed a self-cleavage of 0.244.
C4G A70U gave a self-cleavage of 0.35.
For C4A C85U, the self-cleavage was 0.381.
In the case of C4A C85A, the self-cleavage is reported as 0.346.
Work on C4G A71U yielded a self-cleavage of 0.156.
For C4G U69C, the self-cleavage was 0.308.
In the case of C4G U69G, the self-cleavage is reported as 0.317.
In the case of C4A U27G, the self-cleavage is reported as 0.225.
C4U C58U gave a self-cleavage of 1.15.
C4U C58A showed a self-cleavage of 0.852.
Variant C4G C64U has a self-cleavage of 0.214.
In the case of C4G G39C, the self-cleavage is reported as 0.0326.
For C4G G39A, the self-cleavage was 0.0183.
Variant G5C A45C has a self-cleavage of 0.0639.
In the case of C4A G5C, the self-cleavage is reported as 0.232.
C4A G5U showed a self-cleavage of 0.122.
G5C C22A gave a self-cleavage of 0.
With G5A U79C the self-cleavage was 0.0252.
In the case of G5A C33G, the self-cleavage is reported as 0.0615.
G5C A16C showed a self-cleavage of 0.0875.
Variant C4A G17C has a self-cleavage of 0.0386.
C4A C7A showed a self-cleavage of 0.0449.
C4U U46G gave a self-cleavage of 0.277.
Work on C4U U46A yielded a self-cleavage of 0.485.
C4A C22A gave a self-cleavage of 0.0332.
C4G C32G gave a self-cleavage of 0.
Variant C4G C32A has a self-cleavage of 0.0692.
C4G C32U gave a self-cleavage of 0.086.
With C4G U72C the self-cleavage was 0.0426.
C4G A77C showed a self-cleavage of 0.
Work on C4G A77U yielded a self-cleavage of 0.0354.
For C4U C64U, the self-cleavage was 0.695.
In the case of C4U C64A, the self-cleavage is reported as 0.639.
C4U A77C gave a self-cleavage of 0.0978.
With C4A U72C the self-cleavage was 0.111.
With G5A G76A the self-cleavage was 0.229.
C3U G76A showed a self-cleavage of 0.908.
Variant C3U G29A has a self-cleavage of 0.0154.
Work on C4G C15G yielded a self-cleavage of 0.308.
C3U G35U gave a self-cleavage of 0.649.
For C3U G35A, the self-cleavage was 0.694.
Variant C4A A8C has a self-cleavage of 0.
Variant C4A A8U has a self-cleavage of 0.0723.
G5C C26G gave a self-cleavage of 0.138.
With G5A A45G the self-cleavage was 0.196.
Variant G5A U69G has a self-cleavage of 0.353.
For C4A C14A, the self-cleavage was 0.119.
In the case of C4A C14U, the self-cleavage is reported as 0.554.
For G5A G10U, the self-cleavage was 0.188.
With C4G C49A the self-cleavage was 0.346.
Work on C3U C57U yielded a self-cleavage of 0.794.
For C3U C57A, the self-cleavage was 0.9.
G5A A77C gave a self-cleavage of 0.0504.
Work on G5A A77U yielded a self-cleavage of 0.
For C4G G52U, the self-cleavage was 0.215.
Work on C4G G52C yielded a self-cleavage of 0.383.
Variant C4G G52A has a self-cleavage of 0.47.
Work on C4A U65A yielded a self-cleavage of 0.594.
